Bounds are passed on as bounds.

The series concerns Saccharomyces cerevisiae. In words: transcriptional activation domain activity (GFP:mCherry ratio, weighted mean of sorted bins, harmonized to initial dataset scale) (arbitrary fluorescence ratio units); higher = stronger transcriptional activation. The conditions noted are these: beta-estradiol 1 µM; induction time 4 h. The gist of the method:
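Yeast diploids with a GFP reporter received barcoded protein tiles, fused to an estradiol-inducible synthetic transcription factor, at the URA3 locus. Cultures were diluted 1:5 into SC holding 1 uM beta-estradiol, incubated 4 hours at 30 °C, sorted into 8 bins on GFP:mCherry ratio, and sequenced for barcodes, with tiles under 50 reads discarded. Activation activity values come from the read-weighted mean of bin median fluorescence, averaged across barcodes and linearly placed on the initial dataset scale.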
As to “SLSVVLLHMRHRRLLFSVVMILFIFWMLYVGHCMLYVLLLLRVLLLSLHLWIV”, the “transcriptional activation domain activity” value is 31700.

In the case of “GKRAREESDEENDEEEEAEGEGAEKEGEEEEEEEEVKKPAAKRARTAKGAAAK”, the “transcriptional activation domain activity” value was found to be 13500.

In the case of “AYFAQDSEEELMSPTQSITSNLASEENTRCTTKDLMGTVSIFMLPMVEECYNI”, the “transcriptional activation domain activity” value turned out to be 75100.

“LLKKCLKSSFGKSNEVTTYCLEFFGNVYRWSEMYWSSTWPVLLLVHALKSKQK”: the “transcriptional activation domain activity” value was found to be 52700.

As for “MSVYLFCGLLIFLGCGGSGWRYGFLSFFRLLLGVYVSFRYQHLIYTAWLMWAY”, the “transcriptional activation domain activity” value is 69200.

Regarding “NRKTIGKQDPYCAARLGKEAKKTETDRRGGQTPRWDQELRFTVHDSADYYQLK”, the “transcriptional activation domain activity” value was 44000.

Take “MPTPSFFCFFLLFLSPMLNMRGDTFTAPLIFSFFVFFFFFFMLSLHFLLVFFS”: the “transcriptional activation domain activity” value came out at 46400.

With “YLVMVYAWILWLSLVVLLALIAFYLFMVIWNIDRGTPSPVCLVVFCMQFICTL”, the “transcriptional activation domain activity” value was 44200.

“IWIIQCCVLPLCLHFGSIFPGLQYTLLAFLPYYCCFSHYFPVLIPVLILICFI”: the “transcriptional activation domain activity” value is 63700.

“VEAGDGDGAPPKSAKRPRKKKEPVEEGDGDAAAPKPAKRPRKKKVDVTEAQKE”: the “transcriptional activation domain activity” value worked out at 48100.

For “RLCEFLFFLLFFGGFLVGGLVGLGVWFGWAFVLAFSFFLALHFGVSNHLFVVF”, the “transcriptional activation domain activity” value was 29000.

Regarding “EWFVMFCMMLLLLFWFFPISALASLLSYEEIKKIMPWLGRLIDANENIRAIVQ”, the “transcriptional activation domain activity” value stood at 62900.

In the case of “VLGAAKCIPFLRWPTLHLSILLSWWDADTLVRLLKALAELHLRSITITLKIGI”, the “transcriptional activation domain activity” value was 55700.

For the sequence “VRWIRVRKHIVMAATLAEPFTESIVLVVIGSSSLKYLVGLPRWLCILVHFFLL”, the “transcriptional activation domain activity” value was 35900.

For the sequence “EGGEGGSGSGSGGNAKTRRKGRRRGSSRDGAGAGAGAGAGEGAGGEVGRSKKK”, the “transcriptional activation domain activity” value is 7430.

Turning to “SVCNDGNAGDFLYDCFGEFNNQPFNWDVLSPRVAANPYYSFDDFGSSLFILFQ”, the “transcriptional activation domain activity” value stood at 106000.

As for “PKPKAKTPSKAKKKAEPIPKAKAAPKPKEKTTPNTPARRGRPRKEKAAAETPM”, the “transcriptional activation domain activity” value worked out at 37500.

Regarding “WLSHSKKKTCDVCKHPYSFTKVYAEDMPSRLPLVLLLRKLIEQVFYTALFCIR”, the “transcriptional activation domain activity” value was 54100.

On to “HTQPNLVPWLRCFPADAISVELISHEYIIRILRPILPADWQRPLFYSHRIRMY”, for which the “transcriptional activation domain activity” value worked out at 28900.

As for “MGREHSAPLDSSSKQGAPRRTQRAQLPHNSLCRMGLKTNMKWTHSIRQDKRAE”, the “transcriptional activation domain activity” value worked out at 35600.

On to “FKSMIFFLWFLDTLQLAFVIHALYYYLITSYGNIVALMKPTWSILLQIYVTSL”, for which the “transcriptional activation domain activity” value is 69400.

Turning to “LLKGLTLRNPAILKLEEDEDEAALLTQYAVKCSEVDKFLLTYVILKLKLIKGK”, the “transcriptional activation domain activity” value was 33200.

Turning to “MVCTLDHFQFVGLIYFAFFFIVISYFIDSVIFILFFVYFPFFVFLLLFVIAFY”, the “transcriptional activation domain activity” value is 54800.

Turning to “GDFESKCYLFEPSELRFPPHVFSLTNGRLYRRWYFLDLQSGMLFRFFYICDWR”, the “transcriptional activation domain activity” value was found to be 32700.

Regarding “SMNYISITAPIYDRGPDSTCLLGSTVCSYFDYDTWTLSLTLWVLIQLTWSMFL”, the “transcriptional activation domain activity” value was 60800.

On to “DKSSGEEGSRKKRKRVSDNGEEDKELEKSKSKDRKKKGKRRDPAEDGAERPAT”, for which the “transcriptional activation domain activity” value worked out at 41400.

Consider “MLLSLGPVLFSFGHPPLIHLCLVPHPVFFSYPFSLLFISPISSLDYFCFSFPF”, for which the “transcriptional activation domain activity” value came out at 45400.

With “MVVIVLQIGVSLYKLLVLLLWYVEWILYLFLLVEDRLLYQNMLLFEAPTLVYT”, the “transcriptional activation domain activity” value is 63300.

With “NQRLREDGVDEIELDIISKLHPSRKDTAPRDIKPIPASKRGEISSKFEKLHEQ”, the “transcriptional activation domain activity” value was less than 6570.

In the case of “ESGESEESGRARSRRKRRRREERRGEEGKRRTRAGVRRSKGRKTERASTAGTD”, the “transcriptional activation domain activity” value came to 43100.

As for “KQYCVRPNSGRIEAGKDVEVQVLLQAMKEDPPQGYKCRDKFLVQSVAITADRE”, the “transcriptional activation domain activity” value was 21700.

Regarding “MVHFLVTLPYFILQCLTWLLRFHFFLPCLTFLLCFHLFFGTSLLLSFSMFSWA”, the “transcriptional activation domain activity” value was 50300.

With “LSVSVQGGQLQLRGLNITLTRCHDFMRNIFPLDFPQGRLLALILSLRLFFLST”, the “transcriptional activation domain activity” value came out at 84500.

Regarding “GTKKEEKGEKDKTETKKSKKSSKHNKVTSKKSSSKKSTRKAAISDADSSDDSS”, the “transcriptional activation domain activity” value amounted to 35100.

On to “MVGVNGDHELLLCAIMFPPVLLIINSLLVSILFNDCFLVLSDILLCWMLSVVV”, for which the “transcriptional activation domain activity” value stood at 50400.

For “VSRIRAAVEAQLNHPVNHVLIQHYRSGKDYISEHSDKTIDVVAGSKIVNISIG”, the “transcriptional activation domain activity” value is 37700.

“GSYTSAARGGKAVQEAIRAMIERKGLELRQKQRKLRQDVVIVMHHATALPGTS”: the “transcriptional activation domain activity” value turned out to be 56300.

Source of the values: the supplement of paper PMC12636428.
